Test [1] addresses T1, mouse FAP (fibroblast activation protein alpha) overexpressed in B16F10 cells (B16F10-mFAP) (mouse, UniProt P97321 1-761).
T1 construct: whole, on cells; also called mouse FAP-expressing cell line
T1 sequence (looked up): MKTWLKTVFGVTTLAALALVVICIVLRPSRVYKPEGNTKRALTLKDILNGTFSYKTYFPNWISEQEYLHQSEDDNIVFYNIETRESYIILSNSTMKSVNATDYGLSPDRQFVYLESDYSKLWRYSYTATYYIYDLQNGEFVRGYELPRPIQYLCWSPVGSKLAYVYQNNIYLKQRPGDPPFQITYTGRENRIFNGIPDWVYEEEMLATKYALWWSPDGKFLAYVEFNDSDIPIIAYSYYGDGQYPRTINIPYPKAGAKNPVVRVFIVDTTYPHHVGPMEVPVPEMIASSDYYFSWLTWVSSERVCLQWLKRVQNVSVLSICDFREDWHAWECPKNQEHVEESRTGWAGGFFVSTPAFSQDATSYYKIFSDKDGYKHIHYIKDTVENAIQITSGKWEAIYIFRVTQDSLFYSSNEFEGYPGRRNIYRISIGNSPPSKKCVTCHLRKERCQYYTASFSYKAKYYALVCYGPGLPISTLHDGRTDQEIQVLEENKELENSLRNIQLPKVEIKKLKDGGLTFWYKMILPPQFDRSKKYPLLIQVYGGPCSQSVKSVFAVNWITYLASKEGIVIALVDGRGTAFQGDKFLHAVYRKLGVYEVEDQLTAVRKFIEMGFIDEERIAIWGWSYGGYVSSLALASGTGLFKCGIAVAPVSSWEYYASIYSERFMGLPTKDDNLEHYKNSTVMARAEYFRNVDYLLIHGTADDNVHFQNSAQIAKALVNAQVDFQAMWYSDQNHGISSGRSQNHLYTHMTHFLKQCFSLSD
Kind of test: flow cytometry on B16F10-mFAP cells, detection with anti-mouse IgG2a antibody. The method, then:
(§1) Specifically, the cell line was prepared by suspending in a FACS buffer solution at 1×10⁵ cells/100 μl, and treated with 1 μg of each T1.12m, T1.01m, T1.02m and T1.03m. The cells were washed twice with a FACS buffer solution. The cells were stained with an anti-mouse IgG2a antibody (Biolegend). The negative control was stained only with an anti-mouse IgG2a antibody (Biolegend). The expression rate of the stained cells was measured using BD LSR and analyzed using a FlowJo software.

For the next test, the target named is T2, B16F10.
T2 construct: not a protein target; also called parental B16F10 cells, without the transduced mouse FAP gene
The test is described as follows: flow cytometry on parental B16F10 cells, detection with anti-mouse IgG2a antibody. The method, then: as §1
On the technique in general: Flow cytometry measures light scatter and fluorescence of single cells or particles in a stream.

The target in test [2] is T1, mouse FAP (fibroblast activation …). Kind of test: flow cytometry on B16F10-mFAP cells, 1 µg protein per 1x10^5 cells, anti-mouse IgG2a detection. The procedure:
as §1

For test [3], the target named is T3, recombinant mouse FAP (mouse, UniProt P97321 26-761).
T3 construct: Soluble analyte in SPR
T3 sequence (looked up): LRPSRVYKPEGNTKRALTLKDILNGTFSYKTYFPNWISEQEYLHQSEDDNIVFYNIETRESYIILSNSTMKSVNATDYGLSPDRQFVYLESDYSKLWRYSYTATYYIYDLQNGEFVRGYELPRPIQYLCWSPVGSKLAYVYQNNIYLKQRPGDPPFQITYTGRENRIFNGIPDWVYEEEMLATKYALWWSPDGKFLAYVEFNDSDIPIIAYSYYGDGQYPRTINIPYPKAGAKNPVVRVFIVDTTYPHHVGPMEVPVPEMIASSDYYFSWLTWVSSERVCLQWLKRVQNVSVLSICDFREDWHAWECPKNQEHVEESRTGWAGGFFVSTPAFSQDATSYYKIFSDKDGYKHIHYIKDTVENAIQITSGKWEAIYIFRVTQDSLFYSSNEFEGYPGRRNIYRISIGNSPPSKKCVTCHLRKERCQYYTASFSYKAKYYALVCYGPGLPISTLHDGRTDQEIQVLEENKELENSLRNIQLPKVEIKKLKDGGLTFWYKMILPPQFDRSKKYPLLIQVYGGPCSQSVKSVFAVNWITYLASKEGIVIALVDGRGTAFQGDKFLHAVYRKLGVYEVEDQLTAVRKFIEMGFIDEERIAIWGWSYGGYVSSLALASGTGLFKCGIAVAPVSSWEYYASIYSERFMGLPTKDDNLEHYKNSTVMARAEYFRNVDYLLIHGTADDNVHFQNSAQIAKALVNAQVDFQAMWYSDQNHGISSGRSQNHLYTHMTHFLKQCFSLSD
The test is described as follows: SPR, fusion protein captured by anti-mouse IgG (Fc) on a CM5 chip, mouse FAP as analyte 1.5625-100 nM, 1:1 binding model. (SPR reads the build-up and loss of mass on a sensor chip optically.)

The target of test [4] is T3, recombinant mouse FAP. The test is described as follows: SPR, fusion protein captured by anti-mouse IgG (Fc) on a CM5 chip, mouse FAP as analyte 1.5625-200 nM, 1:1 binding model. The method, then:
The surface of the CM5 chip was activated with a 1:1 mixture of […] (N-hydroxysuccinimide) and […] (1-Ethyl-3-(3-dimethylaminopropyl) carbodiimide), and 25 μg/ml of anti-mouse IgG (Fc) antibody was immobilized for 400 seconds at a rate of 10 μl/min. The remaining active ester groups were blocked with 1 M ethanolamine. T1.01m, T1.02m and T1.03m were diluted to 2 μg/ml and reacted on the CM5 chip immobilized with the anti-mouse IgG (Fc) antibody. The recombinant mouse FAP was diluted to 200 nM in 1×HBS-EP+buffer solution and diluted by serial dilution. The diluted recombinant mouse FAP was reacted at a rate of 30 μl/min. The association and dissociation times were 180 seconds and 400 seconds, respectively. After the dissociation, stabilization was performed for 60 seconds, and then a regeneration was performed for 30 seconds with a 10 mM glycine pH 1.5 solution at a rate of 30 μl/min.

B1: T1.01m (anti-mu FAP/mu IL-12, mu IgG2a DANG) (bispecific antibody)
heavy: QVQLQQSGAELARPGASVNLSCKASGYTFTNNGINWLKQRTGQGLEWIGEIYPRSTNTLYNEKFKGKATLTADRSSNTAYMELRSLTSEDSAVYFCARTLTAPFAFWGQGTLVTVSAAKTTAPSVYPLAPVCGDTTGSSVTLGCLVKGYFPEPVTLTWNSGSLSSGVHTFPAVLQSDLYTLSSSVTVTSSTWPSQSITCNVAHPASSTKVDKKIEPRGPTIKPCPPCKCPAPNLLGGPSVFIFPPKIKDVLMISLSPIVTCVVVAVSEDDPDVQISWFVNNVEVHTAQTQTHREDYGSTLRVVSALPIQHQDWMSGKEFKCKVNNKDLPAPIERTISKPKGSVRAPQVYVLPPPEEEMTKKQVTLWCMVTDFMPEDIYVEWTNNGKTELNYKNTEPVLDSDGSYFMYSKLRVEKKNWVERNSYSCSVVHEGLHNHHTTKSFSRTPGK
light: QIVLTQSPAIMSASPGEKVTMTCSASSGVNFMHWYQQKSGTSPKRWIFDTSKLASGVPARFSGSGSGTSYSLTISSMEAEDAATYYCQQWSFNPPTFGGGTKLEIKRADAAPTVSIFPPSSEQLTSGGASVVCFLNNFYPKDINVKWKIDGSERQNGVLNSWTDQDSKDSTYSMSSTLTLTKDEYERHNSYTCEATHKTSTSPIVKSFNRNEC
chain: MWELEKDVYVVEVDWTPDAPGETVNLTCDTPEEDDITWTSDQRHGVIGSGKTLTITVKEFLDAGQYTCHKGGETLSHSHLLLHKKENGIWSTEILKNFKNKTFLKCEAPNYSGRFTCSWLVQRNMDLKFNIKSSSSSPDSRAVTCGMASLSAEKVTLDQRDYEKYSVSCQEDVTCPTAEETLPIELALEARQQNKYENYSTSFFIRDIIKPDPPKNLQMKPLKNSQVEVSWEYPDSWSTPHSYFSLKFFVRIQRKKEKMKETEEGCNQKGAFLVEKTSTEVQCKGGNVCVQAQDRYYNSSCSKWACVPCRVRSGGGGSGGGGSGGGGSRVIPVSGPARCLSQSRNLLKTTDDMVKTAREKLKHYSCTAEDIDHEDITRDQTSTLKTCLPLELHKNESCLATRETSSTTRGSCLPPQKTSLMMTLCLGSIYEDLKMYQTEFQAINAALQNHNHQQIILDKGMLVAIDELMQSLNHNGETLRQKPPVGEADPYRVKMKLCILLHAFSTRVVTINRVMGYLSSAGGGGSGGGGSEPRGPTIKPCPPCKCPAPNLLGGPSVFIFPPKIKDVLMISLSPIVTCVVVAVSEDDPDVQISWFVNNVEVHTAQTQTHREDYGSTLRVVSALPIQHQDWMSGKEFKCKVNNKDLPAPIERTISKPKGSVRAPQVYVLPPPEEEMTKKQVTLSCAVTDFMPEDIYVEWTNNGKTELNYKNTEPVLDSDGSYFMVSKLRVEKKNWVERNSYSCSVVHEGLHNHHTTKSFSRTPGK
notes: Mouse surrogate, knob-in-hole heterodimer
For B1, the “percent of cells in the positive gate (mFAP-PE)” value (“percent of cells … (mFAP-PE)” for short) in test [1] came to 93.7%. Also, the “percent of cells … (mFAP-PE)” value with B16F10 was determined as 2.41%. For the same molecule, the “percent of cells bound” value in test [2] was no less than 99%. Besides, in the test with recombinant mouse FAP [3], the Kd came to 1.51 nM, the koff turned out to be 6.75e-05 s⁻¹ and the kon stood at 44700 M⁻¹ s⁻¹.

B2: T1.03m (anti-mu FAP/mu IL-12 mut2, mu IgG2a DANG) (bispecific antibody)
heavy: QVQLQQSGAELARPGASVNLSCKASGYTFTNNGINWLKQRTGQGLEWIGEIYPRSTNTLYNEKFKGKATLTADRSSNTAYMELRSLTSEDSAVYFCARTLTAPFAFWGQGTLVTVSAAKTTAPSVYPLAPVCGDTTGSSVTLGCLVKGYFPEPVTLTWNSGSLSSGVHTFPAVLQSDLYTLSSSVTVTSSTWPSQSITCNVAHPASSTKVDKKIEPRGPTIKPCPPCKCPAPNLLGGPSVFIFPPKIKDVLMISLSPIVTCVVVAVSEDDPDVQISWFVNNVEVHTAQTQTHREDYGSTLRVVSALPIQHQDWMSGKEFKCKVNNKDLPAPIERTISKPKGSVRAPQVYVLPPPEEEMTKKQVTLWCMVTDFMPEDIYVEWTNNGKTELNYKNTEPVLDSDGSYFMYSKLRVEKKNWVERNSYSCSVVHEGLHNHHTTKSFSRTPGK
light: QIVLTQSPAIMSASPGEKVTMTCSASSGVNFMHWYQQKSGTSPKRWIFDTSKLASGVPARFSGSGSGTSYSLTISSMEAEDAATYYCQQWSFNPPTFGGGTKLEIKRADAAPTVSIFPPSSEQLTSGGASVVCFLNNFYPKDINVKWKIDGSERQNGVLNSWTDQDSKDSTYSMSSTLTLTKDEYERHNSYTCEATHKTSTSPIVKSFNRNEC
chain: MWELEKDVYVVEVDWTPDAPGETVNLTCDTPEEDDITWTSDQRHGVIGSGKTLTITVKEFLDAGQYTCHKGGETLSHSHLLLHKKENGIWSTEILKNFKNKTFLKCEAPNYSGRFTCSWLVQRNMDLKFNIKSSSSSPDSRAVTCGMASLSAEKVTLDQRDYEKYSVSCQEDVTCPTAEETLPIELALEARQQNKYENYSTSFFIRDIIKPDPPKNLQMKPLKNSQVEVSWEYPDSWSTPHSYFSLKFFVRIQAAAEKMAETEEGCNQKGAFLVEKTSTEVQCKGGNVCVQAQDRYYNSSCSKWACVPCRVRSGGGGSGGGGSGGGGSRVIPVSGPARCLSQSRNLLKTTDDMVKTAREKLKHYSCTAEDIDHEDITRDQTSTLKTCLPLELHKNESCLATRETSSTTRGSCLPPQKTSLMMTLCLGSIYEDLKMYQTEFQAINAALQNHNHQQIILDKGMLVAIDELMQSLNHNGETLRQKPPVGEADPYRVKMKLCILLHAFSTRVVTINRVMGYLSSAGGGGSGGGGSEPRGPTIKPCPPCKCPAPNLLGGPSVFIFPPKIKDVLMISLSPIVTCVVVAVSEDDPDVQISWFVNNVEVHTAQTQTHREDYGSTLRVVSALPIQHQDWMSGKEFKCKVNNKDLPAPIERTISKPKGSVRAPQVYVLPPPEEEMTKKQVTLSCAVTDFMPEDIYVEWTNNGKTELNYKNTEPVLDSDGSYFMVSKLRVEKKNWVERNSYSCSVVHEGLHNHHTTKSFSRTPGK
notes: as for B1
In the case of B2, the “percent of cells … (mFAP-PE)” value in test [1] worked out at 91.6%. The “percent of cells … (mFAP-PE)” value with B16F10 came out at 0.89%. In addition, the “percent of cells bound” value in test [2] was no less than 99%. In the test with recombinant mouse FAP [4], the Kd was 1.25 nM, the koff was 7.66e-05 s⁻¹ and the on-rate constant (kon) turned out to be 61200 M⁻¹ s⁻¹.

By Kd is commonly meant a measure of binding affinity in units of concentration. One may read the koff as the first-order rate constant of dissociation. By kon is commonly meant a measure of how fast the partners come together.

(Values after US20250144178A1 (KANAPH THERAPEUTICS, published 2025).)
